This data set can be described thus: Tolerability observations after IV dosing in the rat PK study. The format is in vivo. As to conditions: rats, 1 mg/kg dose, three rats. Here is the method:
For PK studies, a 0.1 mg/mL solution was dosed at 10 mL/kg such that a 1 mg/kg IV bolus dose was introduced by tail vein injection into rats Following compound administration, blood was collected at 0.083 h, 0.25 h, 0.5 h, 1 h, 2 h, 4 h, 8 h, and 24 h post dose into lithium heparin coated vacuum tubes. Tubes were inverted for 5 minutes and then placed on wet ice until centrifuged for 5 minutes at 4° C. at 6000 rpm. Plasma was harvested, frozen at −80° C. and shipped to for bioanalysis on dry ice.

For the compound `CCCCN(CCSSC[C@@H]1NC(=O)[C@@H](Cc2ccccc2)NC(=O)[C@H](CC(=O)O)NC(=O)CNC(=O)[C@H](CCCNC(=N)N)NC1=O)C(=O)O[C@@H](C(=O)OC1C[C@@]2(O)[C@@H](OC(=O)c3ccccc3)[C@@H]3[C@]4(OC(C)=O)CO[C@@H]4C[C@H](OC)[C@@]3(C)C(=O)[C@H](OC)C(=C1C)C2(C)C)[C@@H](NC(=O)OC(C)(C)C)c1ccccc1` (some centres unmarked) [BT-568], the “Clinical signs of toxicity post dose” value was “lethargy and labored breathing were observed immediately post dose in all three rats”; the Mortality result is given as “one of the three animals died”.

Values taken from US20220288229A1 (priority 2012, published 2022).
